Laboratory results taken from a protein production outcome set (Wang et al. 2014).

Experiment: label from the status in PepcDB records

Sequence	protein production
MRIHSPYPASWALAQRIGYLYSEGEIIYLADTPFERLLDIQRQVGQCQTMTSLSQADFEARLEAVFHQNTGESQQIAQDIDQSVDLLSLSEEMPANEDLLNEDSAAPVIRLINAILSEAIKETASDIHIETYEKTMSIRFRIDGVLRTILQPNKKLAALLISRIKVMARLDIAEKRIPQDGRISLRIGRRNIDVRVSTLPSIYGERAVLRLLDKNSLQLSLNNLGMTAADKQDLENLIQLPHGIILVTGPTGSGKSTTLYAILSALNTPGRNILTVEDPVEYELEGIGQTQVNTRVDMSFARGLRAILRQDPDVVMVGEIRDTETAQIAVQASLTGHLVLSTLHTNSASGAVTRLRDMGVESFLLSSSLAGIIAQRLVRRLCPQCRQFTPVSPQQAQMFKYHQLAVTTIGTPVGCPHCHQSGYQGRMAIHEMMVVTPELRAAIHENVDEQALERLVRQQHKALIKNGLQKVISGDTSWDEVMRVASATLESEA	failed
MFSFVQMTGCLLPLTALTPLSHCTRPRNALALLQSSWKGGSLAISLVRNAVAAVLAAALSVPVSADVGAGSYLAARQAVFANDFSSAADYFARALAIDPQNPALMENMVLSQLALGRLEQAYPVAQLMQEAGLQSQVANIAIVVHLLSEERYQEVLDRDPEMRGVGKLVDGLVAGWAEMGLGSVARALAQFDKVADEAGLRGFANYHKAMALASVGDFEGAEALFAADDGALTTISRRAALARAEILSQLDRNDQALEMLADVFSGGFDPALSDIADRLVAGETLPFSLVRSVRDGLAEVFFTIGAALNGEASDDFTLVYIRSAVHLRPDHIDALLMTAGLLESLGQYDLAVATYKQIPNDSPDYHAAELGRAEALRRSAKPDAAIEVLEKLAKDYPSQPQAFVALGDLQRQQEAYDRAATAYDKALQLTDPGAPNMWFLHYARGICHERLGNWPGAEADFRAALELNPDQPQVLNYLGYSLVEKQEKLDEALDLIERAVAARPDSGYIVDSLGWVLFRLGRYDEAVGHMERAVELMPVDPVVNDHLGDVLWAVGRVREAEFQWRRALSFIKADDTDGEADPERIRRKLEIGLDRVLAEEGVPPLKVANGD	failed
MKTKIAYEEVAGMLNQWYVMIKRHEVSQAVSIKCDIEHQLPNMEENQDLLLYFNLLDYRHKLLTEEFAASNKLFEDIQEQKADMQSTDDMIEYYYFFFAGMYEFHKKDYTNAINYYKLAEEKLRTIPDQIEIAEFHYKLAIAYYQIKQNFLSLNHAKTALKTFKAHDDYIQKAISNDMLIGANKLDLFRFDEAEQHYKQALKDAALIKHHVLLGMAHHNLGLSYVNRNLLTLAEHHFKEALLIKEHEESVYGIHSMFELTHVLYKSNVVKEARKLYEKGFFRAEKAGEREYLSKFKLIHALYDEQDPLTVEHALEYLKTINLWTDVAELTFDIALYYKENGDADKAAEYFEESHHARDQILKRTEELK	failed
MLKFRSHTKELLDGDAIPEKDLFQNLKELDTINKLLGGYKISLSAIDELIKNAAAYKLVDIGCGGGDTLKYMYHWAKRTDKNLSLVGIDIKPVCIEYAKTNTADLPIQYICDDYKQAFNHIEKIDFIHACLFCHHLSEEQLVELIQFALINKTTLVVNDLERNPIAYYSIKWLTAIFSHSYLVKNDAPLSVARGFKKKEWEALLKKAGAATYSVKNKWAFRHQVIVYGNQ	failed
MQAKLRLWLTFCVVTPVLLLFGNAGLAEQTPAPKVLKPVTSKAVGVTPRGQVLSLSCSSCHGTDGKSVGIMPSFYGKTPQYIETALLEFKSGKRYSTVMGRHAKGYSDDEIHLIAQYCGIKGQKTK	failed
MKHPLQDMFTSAIEAVARDSGWAELSAVGSYLAKNDPSFDPRNWGHGRLSQMVKKLDFLTVQESRNGSKLHSEIRLRHDGLEHHHHHH	not failed
MDLLLFSDVHGDREACQRLVDRAADVDVVVGAGDFCVARRNLQAPIETLSAIDTPTVLVPGNAETEDELEAQIDAAGWGAAHVLHGGGTTIDGTPFFGLGGGVPVTPFGPWSYDLTEDEARTLLSDCPEGAVLVAHSPPKDAVDRDSKGQSLGSVAVREAIEAHTPRLTVCGHIHGSWEETAHVGPTPVHNAGPHGRIWTLSEADGA	failed
MSSTLWIFYDQYVQRATVDGLPTFIGPGEQATLRISSLKNDIQVRDQDGQCLIMTDGEELHTLPSGESCELTIDGKPYSFLYVGEAPSEKKYYMGHANLVTISNEPSANIVLPSDIEMDCTLLCERKEWTLYPKEGTQAPYVNGRKVSIPTQIVDGDEMLFGRVLLKIIEGNILVVESNETYETTLTQVETPTSLMQQQYPIYRRTPRMIYEQPTDKVEFSMPSEEIDDVGRPLWMILLPPVAIIVIMVTISIVFQRTWMLFMSVPIMTVMAVVATTMFFREKKKRKQKEEKRKRVYSRYLEVKRDELQALADAQRHALMYHFPTFEQMKNKARRVSSRIWERTIDNNDFLDIRIGRSSVPASFELNQPSDELSNRDRDELMDDFDRFREKYSHLENAPLRLSVARGALGYVGKPSIVEREVSQIIGQLAFAHSYHDLRFVAILNEEQRKKWEWMNWLPHFQLPGTEAKGFIYDEKACDHILNPLYHMLRERDLAQKETVEKKREKKRFLPHIVFFVANRSLIAEHGIMEYLEGKDKELGFTVIFLTDVAQNLNEHVHTIVKAVNRNEGEIVLLRNISIHKRFQFDAYDPASNENYARMLPSLHHQQGMTRSIPDMVSFMEMFPGVIQAKDLEIKKRWQTNDSTKSLAVPIGLKAKDELLELDAHEKMHGPHGLLAGTTGSGKSEFLQTYILSLAVNYHPHEVAFLLIDYKGGGMAQPFKGMPHLLGVITNIAESENFSARALASIRSELKKRQRLFDEHTVNHINDYTELYKAGTAKEPMPHLFIISDEFAELKNEEPEFIKELVSAARIGRSLGVHLLLATQKPSGVVDGQIWSNSRFRIALKVQNATDSREILKNEDAAYIKETGRGYLQIGSNEQYDLFQSAWSGAQYLRSAHDGEEEIAYVTDLGLKLVSRAEIKEDREQESITEIEAVVNEIAATTDELAIVPAKSPWLDPLEERIFYEATSSEDEAQAFPFALADDPENQRQFPICYDWGKSGNLMIFGTSGYGKSTTLLTLLLAFAEKRSPEQANYYVLDFGNGALLPLRQLRHTGDYIKMDEGRKLEKLIDYIEKEMERRSELFMEREVSNISVYNEVSDEPLPSIFIVIDNYDILPEEFSDQAPAFTRFARDGQSRGIYVFATVTARNAVKPVLLNSMNMKICHYMIEKTDLTSLLGRVPFAIESVPGRMIVAKDKNWLAHTYLPAKGENDFEVIENVKARIQTINDRYEDSKLPKSMAMLPKTLTLTGLRERIKEEPRLGIPLGLNEETVQPVYIDQDAGAHMVIAGEPKRGKSNVLKVILSFYFETDVEKIVLCDGVDRPLFDFSRKDKALYPTNAEELQHAVEELKQVMEERRMQYDEALQAGTEIPQFRPYLFVIDSFNEFKKMLGVSKEPAFAEMMQLYGHLEFRVIVAADHKDVSLGRGGVMGELKSARQLVLLVKKSAQSLVSFTHDRTEKLEDGFGYHVVNGRDTKIKIPEVVKEEAFIHS	failed
MKTNSEELTVFVQVVESGSFSRAAEQLAMANSAVSRIVKRLEEKLGVNLLNRTTRQLSLTEEGAQYFRRAQRILQEMAAAETEMLAVHEIPQGVLSVDSAMPMVLHLLAPLAAKFNERYPHIRLSLVSSEGYINLIERKVDIALRAGELDDSGLRARHLFDSRFRVIASPEYLAKHGTPQSTEELAGHQCLGFTEPGSLNTWAVLDAQGNPYKISPHFTASSGEILRSLCLSGCGIVCLSDFLVDNDIAEGKLIPLLAEQTSDKTHPFNAVYYSDKAVNLRLRVFLDFLVEELGNNLCG	failed
MGNIYQITVEEKAEHQRTLSFEFSLHDDLFKLLEKVDGKMDMTPEQTQAFMVGLKLFGEVMMQQRKHPLFKEFSAPFRAFMMNLKKQ	not failed
MSMKILKASVFVIIVFFLMPLPVVAAKKGIYCGELKGSHYGPFDYMDRFNHSEQLKIVEDFHFTSDVEDLIRGSTSSTPAKDLNYTLHAWPNHHRALVSLFKYSIKEKSTRIKGLKYPVECYFDRAIRMNMKDVQVRSIYSAFLSHRGRNKEALEQLEVAANLEPDNATILYNLGLLYFKQKNYEKASHYAEKAYALDYPLPGLRNKLIQAGKWRGSASGRSGK	failed
LMLACMNMARKKTGALIAIQQGIDLTPFAHTGEVFRAEVNARLVENIFFKNSPLHDGAMVIADNSIIAAGCILPVAYNTDLNKDLGLRHRSALGLSQETDAKIIIISEERGRISFAYRGEIHQDITTDELQLLLED	failed
MFKDGSLIPYLTAGDPDKQSTLNFLLALDEYAGAIELGIPFSDPIADGKTIQESHYRALKNGFKLREAFWIVKEFRRHSSTPIVLMTYYNPIYRAGVRNFLAEAKASGVDGILVVDLPVFHAKEFTEIAREEGIKTVFLAAPNTPAERLKVIDDMTTGFVYLVSLYGTTGAREEIPKTAYDLLRRAKRICRNKVAVGFGVSKREHVVSLLKEGANGVVVGSALVKIIGEKGREATEFLKKKVEELLGI	not failed
MTGVIAGPSVLGAVSSGSIESLAELGVILLLFTIGLEMSAERFGEFRRTALIGGTLQICLTVSVVTILTMVLGLSPGKAVFLGFLISLSSTAVVLKVLQDFHETEAPHGQASLAILIFQDVAAVPMILTVPFLGGVVGDPSSALGTLLTAGAVLPWEPCIGKVLVPRLFDVVAATGSREIFLLTVILVCASVTWLTGEVGLSPALGAFLVGSIVANTEYAHRAQGTILPFQEVFLSFFFVSLGMLLDLRFFLDHIYLIVLAVIGVLMIKVVMNSLVGFVMGYSARVVVLLGLVLAQIGEFSFILSETGLRYGLMDRLTFQAFLSVSLITMAITPFLISLSPRISERIVRADLHPRIKNGRVYRRPSVDLRDHLIIIGMGITGRRLADTCEDHGIPYIGLDVNPEAVRRARDEGLNVYYGDGTHLAVLRHFNVPEAAVMVIAIADYRSTVHAIHEARALNEGMKIIARIRGFENTEMLYTAGADVVVSEKREATRRISDEIFSCYSGVCELEE	failed
MNSEENTDSIPIDLILDILSRLPSKSIARCRCVSKLWESMIRQSYFTELFLTRSSSRPHLLIAVEQEGEWKFFSLPQPKNYLGKSSLVVAANLHLKFFEDKRPQHGCSYASSLIYFPNMTIRKKGDDHLGVICNPSTGQYGYVILPPLLDFKSVPYGKFLGFDPIDKQFKVLIPIFDFDKHQTDHHILTLGAETVGWRKIQSPLRYLPHSNGTICINGILYYLAKINYAMDKNVLVCFDVRSENFVFLRLNTYCSSTKLVNYKGKLGMINQEYVDDGGFPLKLSVWVLEDVGKEEWSTYVYTLRDDNKVDQVKYNLSVVGVTASGEIVLVKKTQTLKPFYVLYFNPDKNTLLTVEVKGLHRGLYAVHRIYAFVDHVEDLEFNIMKTTYAAKSKFSQEDRF	failed
MSSLLYARVRANARFQQLVARRNRFTLSLFVLILATFYGYIGLVSFWPELIARRLAQGSNMTVGVAAGAFLFVFFCALSAFYVYRANGEFDSLTQALLSGLEEEQGA	failed
MEDLLPTLPSLDHRDALPNALASPVLPAGQSDAQLVRTWLDTKYAAGLGIRASTRAQYALEAHRLLWYAHALGRPLASWQVADANGYLAFLADPPAHAVGDGRVRQDSPAWRPLRGPLSEASRRQTATIVGGLFEWLVGVEALRVNPFQAVPRARSARGPGSQRRFLEAEQLAAVFDAVEARPAPTLWAQLHKARDRLLLALLFHTGLRASEVTALTWPDFERQRGRHGDFWTVRIREAKGGSDQLVPCDNVMAELARFRQLVGLSPEPRATDTMAVVPAMAGGRQRLAPLTDTLALQRRLSRPVRTRQGLYTIVRQVFEAAAVRLEASGYAEGAANLRAASTHWLRHSHATHLLRAGVPVTDVQRTLRHRDINTTRRYTHEALEDVARSIGGKLPAVLEHHHHHH	failed
TIDLDYQRLALESLRFGHQKILEKIAKEKPKTNASNEDEDNLNASMIVTDTSTGKILALVGGIDYKKSAFNRATQAKRQFGSAIKPFVYQIAFDNGYSTTSKIPDTARNFENGNYSKNSEQNHAWHPSNYSRKFLGLVTLQEALSHSLNLATINLSDQLGFEKIYQSLSDMGFKNLPKDLSIVLGSFAISPIDAAEKYSLFSNYGTMLKPMLIESITNQQNDVKTFTPMETKKITSKEQAFLTLSVLMDAVENGTGSLARIKGLEIAGKTGTSNNNIDAWFIGFTPTLQSVIWFGRDDNTPISKGATGGVVSAPVYSYFMRNILAIEPSLKR	failed
